Laboratory results taken from patent publication US20050049403A1 (CAMBRIDGE ANTIBODY TECHNOLOGY, published 2005).
Numbering of substitutions follows the chain as printed.

How the values were obtained:
recombinant human TGFβ1 [1] = molecular target: T1, recombinant human TGFβ1 (human, UniProt P01137 279-390); assay: A549 cell radioreceptor assay (nM IgG)
TGFβ3 [2] = molecular target: T2, TGFβ3 (UniProt P10600 301-412); assay: A549 cell radioreceptor assay (nM IgG)
T2 sequence (looked up): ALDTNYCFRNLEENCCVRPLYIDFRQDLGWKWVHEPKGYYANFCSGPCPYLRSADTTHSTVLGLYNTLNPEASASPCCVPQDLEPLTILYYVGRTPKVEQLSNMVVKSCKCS

recombinant human TGFβ2 [3] = molecular target: T3, recombinant human TGFβ2 (human, UniProt P61812 303-414); assay: A549 cell radioreceptor assay (nM IgG)
T3 sequence (looked up): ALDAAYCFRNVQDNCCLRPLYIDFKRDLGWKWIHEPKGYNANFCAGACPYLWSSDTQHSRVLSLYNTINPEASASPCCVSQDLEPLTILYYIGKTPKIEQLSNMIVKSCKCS
Protocol: (§1) Aliqouts of ¹²⁵I-TGFβ1 or TGFβ2 (70-90 TBq/mmol; Amersham International) at 20 pM are preincubated with antibody in binding medium at room temperature for 1 h. Duplicate samples of 0.5 ml of TGFβ/antibody mixtures are then added to the cell monlayers and are incubated at 37° C. for 1-2 h. Control wells contain TGFβ only. Unbound TGFβ is removed by washing 4 times with Hank's balanced salt solution containing 0.1% BSA. Cells are solubilised in 0.8 ml 25 mM Tris HCl pH 7.5, 10% glycerol, 1% Triton X-100 at room temperature for 20 min. The contents of each well are removed and ¹²⁵I measured in a gamma counter.
The ability of 6B1 IgG4 to inhibit binding of TGFβ isoforms to receptors was measured in a radioreceptor assay as described in example 4.

TGFβ3 [4] = molecular target: T2, TGFβ3; assay: cell-based or functional assay
recombinant human TGFβ2 [5] = molecular target: T3, recombinant human TGFβ2; assay: cell-based or functional assay
recombinant human TGFβ1 [6] = molecular target: T1, recombinant human TGFβ1; assay: cell-based or functional assay
recombinant human TGFβ1 [7] = molecular target: T1, recombinant human TGFβ1; assay: BIACore, scFv injected over immobilised antigen
Protocol: (§2) The antibodies were also shown to be specific for TGFβ2 compared to TGFβ1 by relative binding to theBIACore sensor chips coated with the appropriate antigen. TGFβ1 and TGFβ2 were immobilised by amine coupling to Biosensor CM5 sensorchips (Pharmacia) according to the manufacturers instructions. […] The amount of TGFβ bound was assessed as the total increase in resonance units (RUs) over this period.

recombinant human TGFβ2 [8] = molecular target: T3, recombinant human TGFβ2; assay: BIACore, scFv injected over immobilised antigen
Protocol: as §2

recombinant human TGFβ2 [9] = molecular target: T3, recombinant human TGFβ2; assay: radioreceptor assay, inhibition of 125I-TGFβ2 binding to A549 cells; concentration of antibody combining sites
Protocol: (§3) Cells are seeded at 1-2×10^5 cells/ml/well into the wells of 24-well cluster plates and grown for 24 h in serum-free DMEM. Cell monlayers are washed twice with serum-free DMEM and 0.5 ml binding medium (DMEM/Hams F12 (Sigma D-6421) containing 0.1% (v/v) BSA added to each well.
as §1

recombinant human TGFβ2 [10] = molecular target: T3, recombinant human TGFβ2; assay: BIACore, scFv
Protocol: (§4) The off-rates for binding to TGFβ1 or TGFβ2 of the single chain Fv fragments described in this example were determined as described by Karlsson et al (R. Karlsson et al, J. Immunol. Methods 145, 229-240, 1991). The results obtained are shown in Table 2, together with dissociation constants for those which have been determined.

recombinant human TGFβ2 [11] = molecular target: T3, recombinant human TGFβ2; assay: cell-based or functional assay; remark: listed apart in the source
recombinant human TGFβ2 [12] = molecular target: T3, recombinant human TGFβ2; assay: BIAcore 2000, koff divided by kon
Protocol: (§5) To determine the kinetic parameters, a series of dilutions of the antibody samples was made in HBS from about 500 μg/ml down to less than 1 μg/ml, usually through doubling dilutions. After the antibody has been injected over the antigen surface, the surface is washed with HBS, then regenerated by stripping off the bound antibody with a pulse of 100 mM HCl. At the higher concentrations of antibody the antigen on the chip surface is saturated, and the off rate is determined on washing with buffer in the dissociation phase. For determination of the on-rate, lower concentrations of antibody are used, giving a linear binding phase in the sensorgram, allowing kₒₙ determination.
(§6) 6B1 IgG4 was purified from the GS/NS0 cell line of Example 10 as in Example 2. 6B1 single chain Fv was expressed intracellularly in E. coli, refolded in vitro (using the methodology of WO94/18227), and purified to give a homogeneous product. The values of kₒₙ and koff were determined for 6B1 IgG4 for binding to both TGFβ2 and TGFβ3, and for the single-chain Fv 6B1 for binding to TGFβ2. The dissociation constant was calculated by dividing koff by kₒₙ.

recombinant human TGFβ2 [13] = molecular target: T3, recombinant human TGFβ2; assay: BIAcore 2000, antigen immobilised, antibody as analyte
Protocol: The immobilisation of ligand is automated by the BIACore 2000 machine, and all steps are carried out in the autosampler or in the flowcell, on the dextran surface of the chip. The buffer used throughout the immobilisation procedure, and the analysis of samples is Hepes-buffered saline (HBS) with a surfactant (Pharmacia Biosensor). The chips (Pharmacia, CM5), have dextran coating on a thin layer of gold. NHS at 100 mM and EDC at 400 mM are mixed by the autosampler, and then a fixed volume is injected over the flowcell surface. This is followed by an injection of antigen in a suitable buffer. In the case of TGFβ, a surface of the correct density was given by using 25-30 μg/ml solution of TGFβ2 (AMS) OR TGFβ3 (R & D systems) in 10 mM acetate. After injection of the ligand, the chip is blocked using 1M ethanolamine. The total amount of TGFβ bound was assessed from the total increase in resonance units over this period.
as §5, §6

recombinant human TGFβ1 [14] = molecular target: T1, recombinant human TGFβ1; assay: radioreceptor assay, inhibition of 125I-TGFβ1 binding to A549 cells; concentration of antibody combining sites
Protocol: as §3, §1

recombinant human TGFβ1 [15] = molecular target: T1, recombinant human TGFβ1; assay: BIACore, scFv
Protocol: as §4

recombinant human TGFβ1 [16] = molecular target: T1, recombinant human TGFβ1; assay: radioreceptor assay, inhibition of 125I-TGFβ1 binding to A549 cells, Example 9

T1 sequence (P01137 279-390 limits assumed): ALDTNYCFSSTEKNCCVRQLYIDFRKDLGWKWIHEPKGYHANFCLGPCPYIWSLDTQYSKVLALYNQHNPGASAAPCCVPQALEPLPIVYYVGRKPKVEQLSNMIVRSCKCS

Work on “Mouse anti-TGFβ1,2,3 monoclonal antibody from Genzyme” yielded an IC50 (recombinant human TGFβ1 [1]) of 0.55 nM, an IC50 (TGFβ3 [2]) of 0.03 nM and an IC50 (recombinant human TGFβ2 [3]) of 0.5 nM. It also gave a TF1 cell proliferation assay IC50 (nM IgG) (TGFβ3 [4]) of 0.1 nM, a TF1 cell proliferation assay IC50 (nM IgG) (recombinant human TGFβ2 [5]) of 10 nM and a TF1 cell proliferation assay IC50 (nM IgG) (recombinant human TGFβ1 [6]) of 1.5 nM.

B1: 6H1 scFv (scFv)
scFv: EVQLVESGGGVVQPGRSLRLSCAASGFTFSSYGMHWVRQAPGKGLEWVAVIWYDGSNKYYADSVKGRFTISRDNSKNTLYLQMDSLRAEDTAVYYCGRTLESSLWGQGTLVTVSSGGGGSGGGGSGGGGSDVVMTQSPSSLSASVGDRVTITCRASQGISNYLAWYQQKPGKAPKLLIYKASTLESGVPSRFSGSGSGTEFTLTISSLQPEDFATYYCQQSYSTPRTFGQGTKVDIKR
B1 was tested, and the “increase in resonance units” value (recombinant human TGFβ1 [7]) was 686 RU, the “increase in resonance units” value (recombinant human TGFβ2 [8]) was 77 RU and the IC50 (recombinant human TGFβ2 [9]) was 0.22 nM. The koff (recombinant human TGFβ2 [10]) was 0.0011 s⁻¹ and the “I.C.50 in TF1 assay (neutralisation of TGFβ2 inhibition of TF1 cell proliferation)” value (recombinant human TGFβ2 [11]) was 1.5 nM.

B2: 6B1 scFv (scFv)
scFv: EVQLVESGGGVVQPGRSLRLSCAASGFTFSSYGMHWVRQAPGKGLEWVAVIWYDGSNKYYADSVKGRFTISRDNSKNTLYLQMDSLRAEDTAVYYCGRTLESSLWGQGTLVTVSSGGGGSGGGGSGGGGSSSELTQDPAVSVALGQTVRITCQGDSLRSYYASWYQQKPGQAPVLVIYGKNNRPSGIPDRFSGSSSGNTASLTITGAQAEDEADYYCNSRDSSSTHRGVFGGGTKLTVLG
notes: also called 6B1 single chain Fv
Molecule B2 has a Kd (recombinant human TGFβ2 [12]) of 2.32 nM, a koff (recombinant human TGFβ2 [13]) of 0.000668 s⁻¹ and a kon (recombinant human TGFβ2 [13]) of 287000 M⁻¹ s⁻¹. The IC50 (recombinant human TGFβ2 [9]) was 0.3 nM, the koff (recombinant human TGFβ2 [10]) was 0.0006 s⁻¹ and the “I.C.50 in TF1 assay (neutralisation of TGFβ2 inhibition of TF1 cell proliferation)” value (recombinant human TGFβ2 [11]) was 15 nM.

B3: 6A5 scFv (scFv)
scFv: EVQLVESGGGVVQPGRSLRLSCAASGFTFSSYGMHWVRQAPGKGLEWVAVIWYDGSNKYYADSVKGRFTISRDNSKNTLYLQMDSLRAEDTAVYYCGRTLESSLWGQGTLVTVSSGGGGSGGGGSGGGGSSSELTQDPAVSVALGQTVRITCQGDSLRSYYASWYQQKPGQAPVLVIYGKNNRPSGIPDRFAGSNSGNTASLTITGAQAEDEADYYCSSRDSSGNHVVFGGGTKLTVLG
notes: also called 6A5 single chain Fv
With B3 the “increase in resonance units” value (recombinant human TGFβ1 [7]) was 480 RU, the “increase in resonance units” value (recombinant human TGFβ2 [8]) was 71 RU and the IC50 (recombinant human TGFβ2 [9]) was 1.5 nM. The Kd (recombinant human TGFβ2 [10]) was 0.7 nM, the koff (recombinant human TGFβ2 [10]) was 0.00014 s⁻¹ and the “I.C.50 in TF1 assay (neutralisation of TGFβ2 inhibition of TF1 cell proliferation)” value (recombinant human TGFβ2 [11]) was 8 nM.

B4: 14F12 scFv (scFv)
scFv: EIQLVESGGGVVQPGRSLRLSCAASGFTFSSYAMHWVRQAPAKGLEWVAVISYDGSNKYYADSVKGRFTISRDNSKNTLYLQMNSLRAEDTAVYYCARAGLETTWGQGTLVTVSSSGGGGGSGGGGSGGGGSSSELTQDPAVSVALGQTVRITCQGDSLRNYYANWYQQKPGQAPVLVIYGKNNRPSGIPDRFSGSSSGNTASLTITGARAEDEGVYYCNSRDSSGAVFGGGTKLTVLG
In the case of B4, the “increase in resonance units” value (recombinant human TGFβ1 [7]) is reported as 616 RU, the “increase in resonance units” value (recombinant human TGFβ2 [8]) is reported as 115 RU and the IC50 (recombinant human TGFβ2 [9]) is reported as 3 nM. For the same molecule, the koff (recombinant human TGFβ2 [10]) was 0.0021 s⁻¹ and the “I.C.50 in TF1 assay (neutralisation of TGFβ2 inhibition of TF1 cell proliferation)” value (recombinant human TGFβ2 [11]) was 90 nM.

B5: 31G9 scFv (scFv)
scFv: QVQLVQSGGGVVQPGRSLRLSCAASGFTFSSYGMHWVRQAPGKGLEWVAVISYDGSIKYYADSVKGRFTISRDNSKNTLYLQMNSLRAEDTAVYYCARTGEYSGYDTSGVELWGQGTTVTVSSGGGGSGGGGSGGGGSDIVMTQSPSTLSASVGDRVTITCRASQGISSWLAWYQQKPGRAPKVLIYKASTLESGVPSRFSGSGSGTDFTLTISSLQPEDFATYYCQQSYSTPWTFGQGTKLEIKR
notes: VH-linker-VL in pCANTAB6; also called 31G9 single chain Fv
In the case of B5, the IC50 (recombinant human TGFβ1 [14]) is reported as 30 nM, the Kd (recombinant human TGFβ1 [15]) is reported as 12 nM and the koff (recombinant human TGFβ1 [15]) is reported as 0.0009 s⁻¹.

B6: CS39 scFv (scFv)
scFv: B5 scFv with I140V, T148S, S169N, W170Y, R180K, V184L, D208E, W234R, L242V, E243D
Work on B6 yielded an IC50 (recombinant human TGFβ1 [14]) of ~60 nM and a koff (recombinant human TGFβ1 [15]) of 0.0017 s⁻¹.

B7: 7A3 scFv (scFv)
scFv: QVQLVESGGGVVQPGRSLRLSCAASGFTFSSYGMHWVRQAPGKGLEWVAVISYDGSNKYYADSVKGRFTISRDNSKNTLYLQMNSLRAEDTAVYYCAKTGEYSGYDSSGVDVWGKGTTVTVSSGGGGSGGGGSGGGGSDIVMTQSPDSLAVSLGERATINCKSSQSLLYSYNKMNYLAWYQQKPGQPPKLLINWASTRESGVPDRFSGSGSGTDFTLTISSLQAEDVAVYYCQQYYATPLTFGHGTKVEIKR
notes: Light chain shuffle of 1-B2
For B7, the IC50 (recombinant human TGFβ1 [14]) was > 100 nM.

B8: CS32 scFv (scFv)
scFv: B7 scFv with E6Q, N57I, K98R, S107T, D111E, V112L, K115Q
Work on B8 yielded an IC50 (recombinant human TGFβ1 [16]) of 40 nM, an IC50 (recombinant human TGFβ1 [14]) of 4.5 nM and a koff (recombinant human TGFβ1 [15]) of 0.0012 s⁻¹.

B9: 11E6 IgG (antibody, V domains shown)
VH: EIQLVESGGGVVQPGRSLRLSCAASGFTFSSYAMHWVRQAPAKGLEWVAVISYDGSNKYYADSVKGRFTISRDNSKNTLYLQMNSLRAEDTAVYYCARAGLETTWGQGTLVTVSS
VL: EVVLTQSPSSLSASVGDRVTITCRASQGIGDDLGWYQQKPGKAPILLIYGTSTLQSGVPSRFSGSGSGTDFTLTINSLQPEDFATYYCLQDSNYPLTFGGGTRLEIKR
notes: its construction as a whole antibody is not described
In the case of B9, the IC50 (recombinant human TGFβ2 [9]) is reported as 1.6 nM.

B10: CS37 scFv (scFv)
scFv: QVQLVQSGGGVVQPGRSLRLSCAASGFTFSSYGMHWVRQAPGKGLEWVAVISYDGSIKYYADSVKGRFTISRDNSKNTLYLQMNSLRAEDTAVYYCARTGEYSGYDTSGVELWGQGTTVTVSSGGGGSGGGGSGGGGSEIVLTQSPSSLSASVGDRVTITCRASQGIGDDLGWYQQKPGKAPILLIYGTSTLQSGVPSRFSGSGSGTDFTLTINSLQPEDFATYYCLQDSNYPLTFGGGTRLEIKR
B10 was tested, and the IC50 (recombinant human TGFβ1 [16]) was ~8 nM.
